Results reported in US20210079074A1 (Alector, published 2021).
Values belong to the binder of their own block, whether it stands above or below them.

Tests used:
[1] = target: T1, recombinant MS4A4A soluble polypeptide JS1; experiment: ELISA, 1 ug/ml antibody
T1 construct: also called JS1.His; loop grafted antigen
Procedure: Anti-MS4A4A antibodies of the present disclosure were tested for their ability to bind to the different recombinant MS4A4A soluble polypeptides, as described in Example 2, as follows. Nucleic acid encoding the VH and VL domains of humanized anti-MS4A4A antibodies of the present disclosure were cloned into pcDNA3.4 vector which contains either the human IgG1 heavy chain constant domain or human kappa constant domain. The humanized anti-MS4A4A antibodies were expressed in Expi293 cells and were purified by Mab select antibody purification resin (GE Healthcare Life Science, cat#17519902) following the manufacture's protocol. ELISA was performed to measure binding of anti-MS4A4A antibodies of the present disclosure the recombinant MS4A4A soluble polypeptides. 1 μg/ml biotinylated antigens were preincubated on the streptavidin-coated ELISA plates (Thermo Scientific, cat#PI15120) for 1 hour. Plates were washed 3 times, followed by the addition of antibodies (1 μg/ml, 0.33 μg/ml, and 0.11 μg/ml antibodies. Plates were incubated at room temperature with shaking for 1 hr, washed 3 times, then 1/2500 dilution of HRP conjugates goat anti human kappa antibodies added (SigmaAldrich cat#. A7164-1ML).

[2] = target: T2, FcγRIIa receptor (H131 variant) (UniProt P12318 34-317, limits assumed); experiment: cell-based or functional assay
T2 sequence (looked up): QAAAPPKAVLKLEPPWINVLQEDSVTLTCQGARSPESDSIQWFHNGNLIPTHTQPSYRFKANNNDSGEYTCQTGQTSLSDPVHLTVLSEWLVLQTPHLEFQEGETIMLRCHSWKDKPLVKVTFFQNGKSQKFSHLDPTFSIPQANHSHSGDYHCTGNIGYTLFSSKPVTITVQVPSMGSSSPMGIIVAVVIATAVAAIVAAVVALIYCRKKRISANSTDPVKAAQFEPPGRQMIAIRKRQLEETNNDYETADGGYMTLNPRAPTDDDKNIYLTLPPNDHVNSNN

[3] = target: FcγRIIIa receptor (V158 variant) (UniProt P08637 17-254); experiment: cell-based or functional assay
Chain of FcγRIIIa receptor (V158 variant) (P08637 other isoform, or with tags, fused parts or gaps mutant limits assumed): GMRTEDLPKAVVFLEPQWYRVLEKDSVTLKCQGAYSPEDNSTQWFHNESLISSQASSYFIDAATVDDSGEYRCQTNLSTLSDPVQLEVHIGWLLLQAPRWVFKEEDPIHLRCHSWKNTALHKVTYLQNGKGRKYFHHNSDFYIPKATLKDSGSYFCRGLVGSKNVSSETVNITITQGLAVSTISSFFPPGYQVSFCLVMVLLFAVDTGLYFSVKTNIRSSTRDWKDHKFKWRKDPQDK

human MS4A4A = human MS4A4A (human, UniProt Q96JQ5 1-239); experiment: FACS, U937-huMS4A4A, 5 ug/ml
Procedure: Anti-MS4A4A antibodies tested were either mouse IgGs purified from hybridoma supernatant or human IgG1 Fc chimeras produced recombinantly in Expi293 cells. Affinity binding to cells was determined as follows. Briefly, cells were harvested, washed, and labeled with Aqua Live/Dead for viability discrimination. After a wash with PBS, 2×10\hat{ }4 cells were aliquoted per well in 96-well U-bottom plates and incubated with 50 μL of purified anti-MS4A4A antibody at various concentrations (3× dilutions starting at 10 μg/mL) in FACS buffer (PBS+2% FBS+1 mM EDTA). After this primary incubation, the supernatant was removed via centrifugation, washed 2× with 150 μL of ice-cold FACS buffer, and incubated with the appropriate secondary antibody on ice for 15 minutes. Following the secondary antibody incubation, the cells were again washed 2× with ice-cold FACS buffer and resuspended in a final volume of 200 μL of FACS buffer. Flow cytometry analysis was performed on a FACSCanto system (BD Biosciences). Binding data was expressed as Median Fluorescent Intensity (MFI).
These experiments were performed using anti-MS4A4A antibodies at a concentration of 5 μg/ml and were assayed for cell binding by flow cytometry.

B1: anti-MS4A4A antibody 4A-306 (antibody, human IgG1, V domains shown)
VH: QVQLVQSGAEVKKPGASVKVSCKASGYTFTNYWMQWVRQAPGQGLEWMGATHPGHGDTRYAQKFQGRVTMTRDTSTSTVYMELSSLRSEDTAVYYCAREEVYYGFRSYWYFDVWGRGTLVTVSS
VL: DIQMTQSPSSLSASVGDRVTITCRASESVDNYGVSFMNWYQQKPGKAPKLLIYGASNQGSGVPSRFSGSGSGTDFTLTISSLQPEDFATYYCQQSKEVPPTFGGGTKVEIK
notes: human IgG1/kappa
OD450 [1]: 0.12

B2: anti-MS4A4A antibody 4A-313 K322A huIgG1 (antibody)
heavy: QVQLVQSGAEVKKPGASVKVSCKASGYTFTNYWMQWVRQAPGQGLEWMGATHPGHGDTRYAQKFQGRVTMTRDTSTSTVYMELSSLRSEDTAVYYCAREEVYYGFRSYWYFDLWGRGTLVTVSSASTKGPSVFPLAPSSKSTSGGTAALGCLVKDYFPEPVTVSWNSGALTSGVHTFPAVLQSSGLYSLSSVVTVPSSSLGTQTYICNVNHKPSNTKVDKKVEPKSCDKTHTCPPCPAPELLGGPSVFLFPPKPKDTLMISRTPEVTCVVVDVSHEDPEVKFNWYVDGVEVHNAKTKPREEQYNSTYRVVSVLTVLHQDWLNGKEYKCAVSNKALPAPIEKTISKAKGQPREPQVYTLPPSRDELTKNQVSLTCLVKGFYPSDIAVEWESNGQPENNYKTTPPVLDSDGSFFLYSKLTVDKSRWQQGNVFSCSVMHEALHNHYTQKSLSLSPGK
light: EIVLTQSPATLSLSPGERATLSCRASESVDNYGVSRMNWYQQKPGQAPRLLIYGASNQGSGIPARFSGSGSGTDFTLTISSLEPEDFAVYYCQQSKEVPPTFGGGTKVEIKRTVAAPSVFIFPPSDEQLKSGTASVVCLLNNFYPREAKVQWKVDNALQSGNSQESVTEQDSKDSTYSLSSTLTLSKADYEKHKVYACEVTHQGLSSPVTKSFNRGEC
luminescence, ADCP reporter, 3.048316 ng/mL [2]: 51
luminescence, ADCP reporter, 9.144947 ng/mL [2]: 46
luminescence, ADCP reporter, 27.43484 ng/mL [2]: 44
luminescence, ADCP reporter, 82.30453 ng/mL [2]: 66
luminescence, ADCP reporter, 246.9136 ng/mL [2]: 60
luminescence, ADCP reporter, 740.7407 ng/mL [2]: 54
luminescence, ADCP reporter, 2,222.222 ng/mL [2]: 67
luminescence, ADCP reporter, 6,666.667 ng/mL [2]: 242
luminescence, ADCP reporter, 20,000 ng/mL [2]: 154
luminescence, ADCC reporter, 3.048316 ng/mL [3]: 338
luminescence, ADCC reporter, 9.144947 ng/mL [3]: 338
luminescence, ADCC reporter, 27.43484 ng/mL [3]: 341
luminescence, ADCC reporter, 82.30453 ng/mL [3]: 426
luminescence, ADCC reporter, 246.9136 ng/mL [3]: 508
luminescence, ADCC reporter, 740.7407 ng/mL [3]: 623
luminescence, ADCC reporter, 2,222.222 ng/mL [3]: 1020
luminescence, ADCC reporter, 6,666.667 ng/mL [3]: 1180
luminescence, ADCC reporter, 20,000 ng/mL [3]: 1220

B3: anti-MS4A4A antibody 4A-333 (antibody, human IgG1, V domains shown)
VH: QVQLVQSGSELKKPGASVKVSCKASGYIFTSYGLSWVRQAPGQGLEWMGWINTYSGVPTYAQGFTGRFVFSLDTSVSTTYLQISSLKAEDTAVYYCARSLVDYWGQGTLVTVSS
VL: DVVMTQSPLSLPVTLGQPASISCKSSQSLLYSDGKTYLSWFQQRPGQSPRRLIYLVSKLDSGVPDRFSGSGSGTDFTLKISRVEAEDVGVYYCWQGIDFHQTFGGGTKVEIK
notes: humanized 4A-21; human IgG1/kappa
OD450 [1]: 1.79
MFI (human MS4A4A): 350

B9: anti-MS4A4A antibody 4A-334 (antibody, human IgG1, V domains shown)
VH: QVQLVQSGSELKKPGASVKVSCKASGYIFTSYGLSWVRQAPGQGLEWMGWINTYSGVPTYAQGFTGRFVFSLDTSVSTAYLQISSLKAEDTAVYYCARSLVDYWGQGTLVTVSS
VL: DIVMTQTPLSSPVTLGQPASISCKSSQSLLYSDGKTYLSWLQQRPGQPPRLLIYLVSKLDSGVPDRFSGSGAGTDFTLKISRVEAEDVGVYYCWQGIDFHQTFGGGTKVEIK
notes: as for B3
OD450 [1]: 1.53
MFI (human MS4A4A): 296

B11: anti-MS4A4A antibody 4A-305 (antibody, human IgG1, V domains shown)
VH: EVQLVQSGAEVKKPGATVKISCKVSGYTFTNYWMQWVQQAPGKGLEWMGATHPGHGDTRYAEKFQGRVTITADTSTDTAYMELSSLRSEDTAVYYCAREEVYYGFRSYWYFDVWGRGTLVTVSS
VL: DIVMTQSPDSLAVSLGERATINCRASESVDNYGVSFMNWYQQKPGQPPKLLIYGASNQGSGVPDRFSGSGSGTDFTLTISSLQAEDVAVYYCQQSKEVPPTFGGGTKVEIK
notes: human IgG1/kappa
OD450 [1]: 0.116

B12: anti-MS4A4A antibody 4A-303 (antibody, human IgG1, V domains shown)
VH: EVQLVQSGAEVKKPGESLKISCKGSGYTFTNYWMQWVRQMPGKGLEWMGATHPGHGDTRYSPSFQGQVTISADKSISTAYLQWSSLKASDTAMYYCAREEVYYGFRSYWYFDVWGRGTLVTVSS
VL: DIVMTQSPDSLAVSLGERATINCRASESVDNYGVSFMNWYQQKPGQPPKLLIYGASNQGSGVPDRFSGSGSGTDFTLTISSLQAEDVAVYYCQQSKEVPPTFGGGTKVEIK
notes: human IgG1/kappa
OD450 [1]: 0.121

B13: anti-MS4A4A antibody 4A-310 (antibody, human IgG1, V domains shown)
VH: EVQLVQSGAEVKKPGESLKISCKGSGYTFTNYWMQWVRQMPGKGLEWMGATHPGHGDTRYSPSFQGQVTISADKSSSTAYLQWSSLKASDTAMYYCAREEVYYGFRSYWYFDVWGRGTLVTVSS
VL: DIVMTQSPDSLAVSLGERATINCRASESVDNYGVSFMNWYQQKPGQPPKLLIYGASNQGSGVPDRFSGSGSGTDFTLTISSLQAEDVAVYYCQQSKEVPPTFGGGTKVEIK
notes: human IgG1/kappa
OD450 [1]: 0.118

B14: anti-MS4A4A antibody 4A-307 (antibody, human IgG1, V domains shown)
VH: QVQLVQSGAEVKKPGASVKVSCKASGYTFTNYWMQWVRQAPGQGLEWMGATHPGHGDTRYAQKFQGRVTMTADKSTSTVYMELSSLRSEDTAVYYCAREEVYYGFRSYWYFDVWGRGTLVTVSS
VL: DIVMTQSPDSLAVSLGERATINCRASESVDNYGVSFMNWYQQKPGQPPKLLIYGASNQGSGVPDRFSGSGSGTDFTLTISSLQAEDVAVYYCQQSKEVPPTFGGGTKVEIK
notes: human IgG1/kappa
OD450 [1]: 0.126

B15: anti-MS4A4A antibody 4A-311 (antibody, human IgG1, V domains shown)
VH: EVQLVQSGAEVKKPGATVKISCKVSGYTFTNYWMQWVQQAPGKGLEWMGATHPGHGDTRYAEKFQGRVTITADKSTSTAYMELSSLRSEDTAVYYCAREEVYYGFRSYWYFDVWGRGTLVTVSS
VL: DIVMTQSPDSLAVSLGERATINCRASESVDNYGVSFMNWYQQKPGQPPKLLIYGASNQGSGVPDRFSGSGSGTDFTLTISSLQAEDVAVYYCQQSKEVPPTFGGGTKVEIK
notes: human IgG1/kappa
OD450 [1]: 0.122

Second part, the binder after the results:

OD450 [1]: 0.162
B4: anti-MS4A4A antibody 4A-341 (antibody, human IgG1, V domains shown)
VH: QVQLVQSGAEVKKPGASVKVSCKASGYIFTSYGLSWVRQAPGQRLEWMGWINTYSGVPTYSQKFQGRVTITRDTSASTAYMELSSLRSEDTAVYYCARSLVDYWGQGTLVTVSS
VL: DVVMTQTPLSLSVTPGQPASISCKSSQSLLYSDGKTYLSWYLQKPGQPPQLLIYLVSKLDSGVPDRFSGSGSGTDFTLKISRVEAEDVGVYYCWQGIDFHQTFGGGTKVEIK
notes: as for B3

OD450 [1]: 0.132
B5: anti-MS4A4A antibody 4A-345 (antibody, human IgG1, V domains shown)
VH: QVQLVQSGAEVKKPGASVKVSCKASGYIFTSYGLSWVRQAPGQRLEWMGWINTYSGVPTYSQKFQGRVTITRDTSASTAYMELSSLRSEDTAVYYCARSLVDYWGQGTLVTVSS
VL: DIVMTQTPLSLSVTPGQPASISCKSSQSLLYSDGKTYLSWYLQKPGQPPQLLIYLVSKLDSGVPDRFSGSGSGTDFTLKISRVEAEDVGVYYCWQGIDFHQTFGGGTKVEIK
notes: as for B3

OD450 [1]: 0.141
B6: anti-MS4A4A antibody 4A-347 (antibody, human IgG1, V domains shown)
VH: QVQLVQSGAEVKKPGASVKVSCKASGYIFTSYGLSWVRQAPGQRLEWMGWINTYSGVPTYSQKFQGRVTITLDTSASTTYMELSSLRSEDTAVYYCARSLVDYWGQGTLVTVSS
VL: DIVMTQTPLSLSVTPGQPASISCKSSQSLLYSDGKTYLSWYLQKPGQPPQLLIYLVSKLDSGVPDRFSGSGSGTDFTLKISRVEAEDVGVYYCWQGIDFHQTFGGGTKVEIK
notes: as for B3

OD450 [1]: 1.66
MFI (human MS4A4A): 286
B7: anti-MS4A4A antibody 4A-335 (antibody, human IgG1, V domains shown)
VH: QVQLVQSGSELKKPGASVKVSCKASGYIFTSYGLSWVRQAPGQGLEWMGWINTYSGVPTYAQGFTGRFVFSLDTSVSTAYLQISSLKAEDTAVYYCARSLVDYWGQGTLVTVSS
VL: DVVMTQTPLSSPVTLGQPASISCKSSQSLLYSDGKTYLSWLQQRPGQPPRLLIYLVSKLDSGVPDRFSGSGAGTDFTLKISRVEAEDVGVYYCWQGIDFHQTFGGGTKVEIK
notes: as for B3

OD450 [1]: 1.7
MFI (human MS4A4A): 309
B8: anti-MS4A4A antibody 4A-336 (antibody, human IgG1, V domains shown)
VH: QVQLVQSGSELKKPGASVKVSCKASGYIFTSYGLSWVRQAPGQGLEWMGWINTYSGVPTYAQGFTGRFVFSLDTSVSTAYLQISSLKAEDTAVYYCARSLVDYWGQGTLVTVSS
VL: DVVMTQTPLSSPVTLGQPASISCKSSQSLLYSDGKTYLSWLQQRPGQPPRRLIYLVSKLDSGVPDRFSGSGAGTDFTLKISRVEAEDVGVYYCWQGIDFHQTFGGGTKVEIK
notes: as for B3

OD450 [1]: 0.146
B10: anti-MS4A4A antibody 4A-340 (antibody, human IgG1, V domains shown)
VH: QVQLVQSGAEVKKPGASVKVSCKASGYIFTSYGLSWVRQAPGQRLEWMGWINTYSGVPTYSQKFQGRVTITLDTSASTTYMELSSLRSEDTAVYYCARSLVDYWGQGTLVTVSS
VL: DVVMTQTPLSLSVTPGQPASISCKSSQSLLYSDGKTYLSWYLQKPGQPPQLLIYLVSKLDSGVPDRFSGSGSGTDFTLKISRVEAEDVGVYYCWQGIDFHQTFGGGTKVEIK
notes: as for B3
